Measurements: the DeepSol protein solubility set

Assay: soluble on expression in E. coli; label from the status in PepcDB or PDB records

Row | Sequence | soluble on expression in E. coli
1 | MSYKIVIDSCGELLDEWKKDPRFESVALTLSVGGENIIDDENFDQASFLKKVADCPECPKSACPSPERYMRAFDCDADHVYAVTLSAELSGSYNSAVLGKSLLQEENPGKQIYVFNSKSASVGQSLIAMKIQECEEAGYSFEKVIETVEAYIADQHTFFVLDNLETLRKNGRLSKVKALVASALKIKPVMGSTDEGAICQLDQARGMNKALVKMAQNIVDKTKDSENKILAISHCNCRERAVLLKNALEERMPVKHIVILDTAGVSSMYANDGGVIVAV | not soluble
2 | SSLVRRIISTAKAPAAIGPYSQAVLVDRTIYISGQLGMDPASGQLVPGGVVEEAKQALTNIGEILKAAGCDFTNVVKATVLLADINDFSAVNDVYKQYFQSSFPARAAYQVAALPKGGRVEIEAIAVQGPLTTASL | soluble
3 | MGSDKIHHHHHHMKILIVDDEYRKVEEIFNVLADAGISCAGVKHETTAQAARILLRRQDYDLLIIDLHLPAAIGGKPDNEGGITFLDMIRLDEKVKLPASVLFITGREELIESAYTKVIERGAILCQYHSDSDEWKKILIGRAKYDSQRLARDEQVDVVIVTALRNPELDAVLNLPYQWIQKRIKDDPLTYHYGKIPRIDSNISVVAVSPNRKGMPSSAAVASKLALMFKPKILLMVGICAGIRDKCSLGDIIVADPTWDWGSGKHGLDSNGSPVFHAAPRQVPLNSALSQVASDLANDESVMNGIRKGWSEEVPGGKLKVHIGPMASGASVIADDRSARLIAIQQHRELIAIEMEAYAVMAAAEYTSIPNLTAMIIKSVCDFADAEKNDTWQKYASYTSAAFADQLFRNSNISV | not soluble
4 | MSKPKYPFEKRLEVVNHYFTTDDGYRIISARFGVPRTQVRTWVALYEKHGEKGLIPKPKGVSADPELRIKVVKAVIEQHMSLNQAAAHFMLAGSGSVARWLKVYEERGEAGLRALKIGTKRNIAISVDPEKAASALELSKDRRIEDLERQVRFLETRLMYLKKLKALAHPTKK | not soluble
5 | MPHSYPALSAEQKKELSDIALRIVAPGKGILAADESVGSMAKRLSQIGVENTEENRRLYRQVLFSADDRVKKCIGGVIFFHETLYQKDDNGVPFVRTIQDKGIVVGIKVDKGVVPLAGTDGETTTQGLDGLSERCAQYKKDGADFAKWRCVLKISERTPSALAILENANVLARYASICQQNGIVPIVEPEILPDGDHDLKRCQYVTEKVLAAVYKALSDHHVYLEGTLLKPNMVTPGHACPIKYTPEEIAMATVTALRRTVPPAVPGVTFLSGGQSEEEASFNLNAINRCPLPRPWALTFSYGRALQASALNAWRGQRDNAGAATEEFIKRAEVNGLAAQGKYEGSGEDGGAAAQSLYIANHAYL | soluble
6 | MHKLLISLMMLLSFQAFSQVQEYTLNNGLKVLVKEDHRAPVVVSMIWYNVGSADEPVGITGVSHAIEHMMFKGTSKYPVGVFSKTIAALGGQENAFTNNDYTAYYEKLDAGHLATSFELEADRMNNLLLNSEEFAKEIKVIQEERRLRTDNNPQALAFERFLATAHLTAPYNHPVIGWMNDLKQMKVEDLKKWYESYYAPNNATLVVVGDVNPEKVHALAEHYFGSIAKRPIASRKPQQEPSALGKKMVYINAPAKLPLLLIGYTVPSVKTAKNNWEPYALEIIAGILDAGESARFAKHLVRGNQVATGAEAYYNLYSRYQSQFIVYGAPSQDHQIKDLEKALITELEALKKAPVSNQELQRVKNQIIAQKTFEKDSIFGQAMELGLLETIGLGWKNTETYTKAINEITPEQIQQVAQRYFQENNMTVAELKPIRQEEVRP | not soluble
7 | MSNQRDYTLIIDKSGSMSIIEPKFQKSRWELVQESTLALARKCDQLDANGITVYTFSGKFRRYDNVNASKVEQIFQENEPVGGTNLTAVLQDALNNFLQRKKSNQAPTGETILVITDGEPNDRRSVFEIIIQASKCLDADEELAISFMQIGNDPSATKFLQALDDQLMEVGAKFDIVDTVTFDEMEDLTLTEVLLNAIEDLEHHHHHH | soluble
8 | MAHHHHHHMNPNQPPRRKTAFNEEFDVMQAIQEDRMAYHASIACHERCVHNYFFNNFYWREKTCMDNCLDKINQATVITNINYGKFEDVESKK | not soluble
9 | MGSDKIHHHHHHMETTKLGNLKLYGAGHAAGGAYHNVSIKGEGIVGEGLSAVGCRIYGTGLFLGKAETERLRVLGESECKGDLTAGKINIYGTMKVSGSLQFDRFNLKGQTEIGGNMTGESCDVKGKLSVIGDCETEMFHVTGCVDVSGLLNSGEIKLGLSHDINHVQEIGGTTITVKRRASFFSRKKGKLIADVIEGDRVYLENTEAAVVRGKEVIIGPGCSIGTIEYEYKCECDPHSQIKEKTKL | not soluble
